Experimental findings from the NTF2 design screens of Basanta et al. (2020) are described below.

A short description of this data set: protease stability score; higher = more stable; yeast display proteolysis, trypsin and chymotrypsin.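 Further: log10 excess protease needed over predicted unfolded state with 0 meaning unfolded.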

Sequence “DEENKHAAERLMRAIQKGDPDDMVRNMDKDAKVNIGDQQFHGREEVAKQNRKDNKEMRYHQEVKSISVDGDKVTVEATAQFTYNGQPDTFKFSFRAHLHNGRIRHLDVHFDEQTKRDQES” had a protease stability score of 0.101.

With “DEENKKQAERLYTALEKNNPEELKKLADPNARVEVGDTTYHGMRKFLRDLAQTLKELRVEVIEIEIDVQGNQVTAHVHVRVEKNGQPDEFVLIFHFELSNGRIKRVRVERHQ”, the protease stability score is 1.12.

Sequence “DEENKKRFDKFQEVQKQGDPKQLQSLMDPNVEWRVGDKNYHGRQEIAKDRIRVQREIRIEFNITHYENHNGRVKIHAEAKAKVNGRPQTYDYSFEVVVHNGKIKELNWRVDPEEVDRIES” showed a protease stability score of 0.67. Take “DEENLDAARRLIDALKNNDPDHAMENADKDVRVHIGDWHVHGREDMSRLIKELVDEMRVDVKDVKTRKDGETAVITIDAVFHVNGEPKRDTFTMNVKAHNGHVQRIHARVSEEDVRKLKQ”: the protease stability score is -0.086. In the case of “DEENLEIAKDLIRAQETGDEERIQNLLDPNVKIDVGDKSIHGREHLRKTQQEQKRNMRFDVDSVENKVHNGQVRVDAHVRERHNGQPTTKRYTLHMHFHNGKVERIRLQDKG” it was 0.318; in that of “DEENLHRRAEQFVKALEHGDQHQFRRMFDENARVEVGDKFFHGREEVARFMRDLTRRIDHVQFRRMEVRGEKIIVKAEAHVNGKRVTIIFDLTVKNGRIKHVRITFTDEKDRREFER”, 1.12; in that of “DEENLKKVREFLEHLVTGNEREVKHLMDPNAEMEVGDKKYSGTEQLRRLMQELKRHQTNKYDIKDMKVQGNKADLKAKVIERHNGQPDDTEQQFFATMSNGRFKKVSFRTDK”, -0.295.

As to “DEENLNQLKKFWHALQTNNPDQARKLADPNVRLHVGDKSVNGREEMVKRLVDKMHEMEIDYKVRDMHAHNGHIKVEAERVIHDNGQPRRATYEIRVIIKNGRIKEIQIHERQ”, the protease stability score turned out to be 1.07.

As for “DEENLNRLDEFQQAVQTGDEKEAEELVDPNARVNVGDKQVNGMDKLRRTIHNKRRKMRVEIDHVNFRAKGNHVTARFDFHVNHNGTPRRTQMNVEARFKNGRIKSLRNESVS”, the protease stability score was determined as 0.121. The result for “DEENLQKIAHKVVRALHDGDPHQMHDLFDKDARISYGDKSVHGRNEISKAAHEREERVDDIDFKSFSVKNGHVEVDAKYDHNGQRREVIVQVEMHNGRIKSARFTKK” reads 0.2; that for “DEENLRTLAQEVKDILQTGDEEKLKEMLDKDVRLEVGDHVYEGSENAAKAANHWKERADHIQVDSIEIHGNELRIDVRVNVNGKNIDIDIVVTFSNGRIREMKFQYRDEDEKRQLER”, 0.809. The result for “DEENLRVVVHLMKAVETGDPTKARRNLDKDVHFNVGNRRIHGREQFQKELDDEKKDISINVKDYRVRDKNGKAHFTVRFVLEVNGRPMEMKITMQAEAHNGRIKHVQQQVSEEDEKRINK” reads -0.094; that for “DEENMEVLEKVLDAMRTGDKKKVRDNLDKDARIEIGDHVLNGREEFAKWVVQIKKEIKVQINIQSVDVSNGRVRVHAQVEFRVNGQPQQYTIHIVAEIHNGHIKTLRMSFDDDQQRKFES”, 0.924. In the case of “DEENMEVYQTQLKVEQRGNEEELVKLIDPNAEVRIGDKQVKGRENIAHTIKQETDKMERKIESLNLSAHNGEIHIKATVVQTHNGEPRTDSYVMRIHLHNGRLKQMDVHKSN” it was 0.541; in that of “DEENMHKLQEIIRTNDETKFNEMMDPNVEIEVGNKTYHGREEAIKFQRRVNQHVDKIQVDYVEVQGDSLRADYVVQVNGQNVRVDLEIRVEDGRAKEIRLNFRNEEEHKMYEKWLS”, 1.34; in that of “DEENQKIFDEYVKALRTNNPERLNEMLDPNARVQVGDKEVHGMDDLSRTVNQMIDNLHLNLKIESVHVRGNTLSVDAEYVLNVNGKPQRRSVEIEIHAHNGTVKFLRMRVDPREEQKIKS”, 0.363.

As to “DEENQKQIKKIWHAWEKGDEQKAQDMVDPNVNIQVGDKHISGQDSLREDLRRKRHEMRVRVRFHDINIDENHISVKIEVLNEKNGRPSTKVVVFEATVHNGKIKSMEFRDDD”, the protease stability score was 0.494. In the case of “DEENQQDYARKMNEMIVQNDPDEALRLFDPNVKVDIGDTRIDGRHDLERWVEDLKKQVDHVQLHDVKFRGDHASIHIEMTVNGRTISQIYHIVFHNGKAKEMKVETK” it was 0.567.
